Test results: PMC4600727 (2015)
Positions count from the first letter of the chain named. Names may count otherwise. Values belong to the binder of their own block, whether it stands above or below them.

What was measured:
Trx-Stau951-1,018 [1] = target: T1, Trx-Stau951-1,018 (Drosophila, UniProt P25159 951-1018); assay: ITC; Mira fragments injected into Stau fragments; 25 °C; 50 mM Tris pH 8.0, 100 mM NaCl, 1 mM EDTA
T1 chain: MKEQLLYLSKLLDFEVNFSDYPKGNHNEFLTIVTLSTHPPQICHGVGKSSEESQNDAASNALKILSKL

Stau dsRBD5 Y971K = target: T2, Stau dsRBD5 Y971K (Drosophila, UniProt P25159 951-1018); assay: ITC
T2 chain: T1 chain with Y21K

Trx-Stau951-1,018 [2] = target: T1, Trx-Stau951-1,018; assay: ITC

- Kd (Trx-Stau951-1,018 [1]): 1.07 µM
- Kd (Stau dsRBD5 Y971K): 8.7 µM
B1: Trx-Mira514–595 (domain or fragment)
chain: NYQLTLTNTRATVNILMERLKKSDADVEQYRAELESVQLAKGALEQSYLVLQADAEQLRQQLTESQDALNALRSSSQTLQSE

- Kd (Trx-Stau951-1,018 [2]): 72.5 µM
B2: Mira514–595 R532A (domain or fragment)
chain: B1 chain with R19A
